From the Human Domainome abundance scans (Beltran et al. 2025)
± gives the uncertainty stated by the source.

B1: Histone H1t, residues 44 to 112; numbered along this chain, P22492 (parent)
chain: VSKLITEALSVSQERVGMSLVALKKALAAAGYDVEKNNSRIKLSLKSLVNKGILVQTRGTGASGSFKLS

Variants of: B1
Experiment: abundance fitness (aPCA) (normalised: wild type 0, dead -1); higher = more abundant; growth selection in yeast, the domain comes from the species named
Conditions: Homo sapiens

Row | Variant | abundance fitness
1 | VSKLITEALSVSQERVGMSLVALKKALAAAGYDVERNNSRIKLSLKSLVNKGILVQTRGTGASGSFKLS [K36R] | -0.106 ± 0.033
2 | VSKLITEALSVSQERVGMSLVALKKALAAAGYDVESNNSRIKLSLKSLVNKGILVQTRGTGASGSFKLS [K36S] | -0.25 ± 0.038
3 | VSKLITEALSVSQERVGMSLVALKKALAAAGYDVETNNSRIKLSLKSLVNKGILVQTRGTGASGSFKLS [K36T] | -0.323 ± 0.048
4 | VSKLITEALSVSQERVGMSLVALKKALAAAGYDVEVNNSRIKLSLKSLVNKGILVQTRGTGASGSFKLS [K36V] | -0.46 ± 0.053
5 | VSKLITEALSVSQERVGMSLVALKKALAAAGYDVEWNNSRIKLSLKSLVNKGILVQTRGTGASGSFKLS [K36W] | -0.626 ± 0.055
6 | VSKLITEALSVSQERVGMSLVALKKALAAAGYDVEYNNSRIKLSLKSLVNKGILVQTRGTGASGSFKLS [K36Y] | -0.362 ± 0.092
7 | VSKLITEALSVSQERVGMSLVALKKALAAAGYDVEKANSRIKLSLKSLVNKGILVQTRGTGASGSFKLS [N37A] | 0.244 ± 0.36
8 | VSKLITEALSVSQERVGMSLVALKKALAAAGYDVEKDNSRIKLSLKSLVNKGILVQTRGTGASGSFKLS [N37D] | -0.397 ± 0.24
9 | VSKLITEALSVSQERVGMSLVALKKALAAAGYDVEKFNSRIKLSLKSLVNKGILVQTRGTGASGSFKLS [N37F] | -0.178 ± 0.29
10 | VSKLITEALSVSQERVGMSLVALKKALAAAGYDVEKGNSRIKLSLKSLVNKGILVQTRGTGASGSFKLS [N37G] | -0.091 ± 0.12
11 | VSKLITEALSVSQERVGMSLVALKKALAAAGYDVEKHNSRIKLSLKSLVNKGILVQTRGTGASGSFKLS [N37H] | 0.093 ± 0.24
12 | VSKLITEALSVSQERVGMSLVALKKALAAAGYDVEKINSRIKLSLKSLVNKGILVQTRGTGASGSFKLS [N37I] | 0.148 ± 0.16
13 | VSKLITEALSVSQERVGMSLVALKKALAAAGYDVEKLNSRIKLSLKSLVNKGILVQTRGTGASGSFKLS [N37L] | -0.061 ± 0.11
14 | VSKLITEALSVSQERVGMSLVALKKALAAAGYDVEKMNSRIKLSLKSLVNKGILVQTRGTGASGSFKLS [N37M] | -0.45 ± 0.28
15 | VSKLITEALSVSQERVGMSLVALKKALAAAGYDVEKPNSRIKLSLKSLVNKGILVQTRGTGASGSFKLS [N37P] | -0.173 ± 0.28
16 | VSKLITEALSVSQERVGMSLVALKKALAAAGYDVEKRNSRIKLSLKSLVNKGILVQTRGTGASGSFKLS [N37R] | 0.077 ± 0.18
17 | VSKLITEALSVSQERVGMSLVALKKALAAAGYDVEKSNSRIKLSLKSLVNKGILVQTRGTGASGSFKLS [N37S] | -0.013 ± 0.28
18 | VSKLITEALSVSQERVGMSLVALKKALAAAGYDVEKTNSRIKLSLKSLVNKGILVQTRGTGASGSFKLS [N37T] | -0.522 ± 0.33
19 | VSKLITEALSVSQERVGMSLVALKKALAAAGYDVEKVNSRIKLSLKSLVNKGILVQTRGTGASGSFKLS [N37V] | -0.161 ± 0.17
20 | VSKLITEALSVSQERVGMSLVALKKALAAAGYDVEKWNSRIKLSLKSLVNKGILVQTRGTGASGSFKLS [N37W] | -0.083 ± 0.38

Row | Variant | abundance fitness
21 | VSKLITEALSVSQERVGMSLVALKKALAAAGYDVEKYNSRIKLSLKSLVNKGILVQTRGTGASGSFKLS [N37Y] | -0.289 ± 0.38
22 | VSKLITEALSVSQERVGMSLVALKKALAAAGYDVEKNASRIKLSLKSLVNKGILVQTRGTGASGSFKLS [N38A] | 0.106 ± 0.087
23 | VSKLITEALSVSQERVGMSLVALKKALAAAGYDVEKNDSRIKLSLKSLVNKGILVQTRGTGASGSFKLS [N38D] | -0.632 ± 0.23
24 | VSKLITEALSVSQERVGMSLVALKKALAAAGYDVEKNESRIKLSLKSLVNKGILVQTRGTGASGSFKLS [N38E] | -0.061 ± 0.14
25 | VSKLITEALSVSQERVGMSLVALKKALAAAGYDVEKNGSRIKLSLKSLVNKGILVQTRGTGASGSFKLS [N38G] | -0.122 ± 0.15
26 | VSKLITEALSVSQERVGMSLVALKKALAAAGYDVEKNHSRIKLSLKSLVNKGILVQTRGTGASGSFKLS [N38H] | -0.405 ± 0.39
27 | VSKLITEALSVSQERVGMSLVALKKALAAAGYDVEKNISRIKLSLKSLVNKGILVQTRGTGASGSFKLS [N38I] | -0.162 ± 0.34
28 | VSKLITEALSVSQERVGMSLVALKKALAAAGYDVEKNKSRIKLSLKSLVNKGILVQTRGTGASGSFKLS [N38K] | -0.124 ± 0.36
29 | VSKLITEALSVSQERVGMSLVALKKALAAAGYDVEKNLSRIKLSLKSLVNKGILVQTRGTGASGSFKLS [N38L] | 0.048 ± 0.066
30 | VSKLITEALSVSQERVGMSLVALKKALAAAGYDVEKNMSRIKLSLKSLVNKGILVQTRGTGASGSFKLS [N38M] | 0.084 ± 0.16
31 | VSKLITEALSVSQERVGMSLVALKKALAAAGYDVEKNPSRIKLSLKSLVNKGILVQTRGTGASGSFKLS [N38P] | -0.168 ± 0.069
32 | VSKLITEALSVSQERVGMSLVALKKALAAAGYDVEKNQSRIKLSLKSLVNKGILVQTRGTGASGSFKLS [N38Q] | -0.058 ± 0.1
33 | VSKLITEALSVSQERVGMSLVALKKALAAAGYDVEKNRSRIKLSLKSLVNKGILVQTRGTGASGSFKLS [N38R] | -0.393 ± 0.28
34 | VSKLITEALSVSQERVGMSLVALKKALAAAGYDVEKNSSRIKLSLKSLVNKGILVQTRGTGASGSFKLS [N38S] | 0.044 ± 0.09
35 | VSKLITEALSVSQERVGMSLVALKKALAAAGYDVEKNTSRIKLSLKSLVNKGILVQTRGTGASGSFKLS [N38T] | 0.109 ± 0.14
36 | VSKLITEALSVSQERVGMSLVALKKALAAAGYDVEKNVSRIKLSLKSLVNKGILVQTRGTGASGSFKLS [N38V] | 0.047 ± 0.085
37 | VSKLITEALSVSQERVGMSLVALKKALAAAGYDVEKNWSRIKLSLKSLVNKGILVQTRGTGASGSFKLS [N38W] | 0.105 ± 0.22
38 | VSKLITEALSVSQERVGMSLVALKKALAAAGYDVEKNNARIKLSLKSLVNKGILVQTRGTGASGSFKLS [S39A] | -0.005 ± 0.04
39 | VSKLITEALSVSQERVGMSLVALKKALAAAGYDVEKNNCRIKLSLKSLVNKGILVQTRGTGASGSFKLS [S39C] | -0.675 ± 0.22
